Values of other authors, collected in article PMC4359947.

Target: CAR D1 (Homo sapiens) (UniProt P78310)

Chain of CAR D1 (P78310 20-134): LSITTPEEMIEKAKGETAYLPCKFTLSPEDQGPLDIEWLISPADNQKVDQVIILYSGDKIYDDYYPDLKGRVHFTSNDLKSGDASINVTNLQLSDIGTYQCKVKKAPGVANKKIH

## CAR D1 (from UniProt P78310)
  Kd: 16 µM
